Assay results as given in the DeepSol protein solubility set.

Assay: soluble on expression in E. coli; label from the status in PepcDB or PDB records

| Sequence | soluble on expression in E. coli |
| --- | --- |
| GEVDMTIRGNITYSKNEVLEKDEENQVYSYLYQKGYRVDQVKGLIAEGLFADYDDIRTSPKQEFGTVQPGDIKYKDVNGDGVVNDNDKVAIGATTTPNLVYGIGASFAWKGIDVNVHFQGAGKSTFPIYGKCVYAFSESDWGNIFKDMISDRWVDSETAAKLGLHANENPNATYPRLTYGENKNNQQTSTYWMRDGRYIRLKNLDIGYTLPKSIVNKLHFNNIRIYIAGSNLITWSKFKTWDPETGNPRGEAYPLTKSVTMGLSVNL | not soluble |
| MMKMIIAIVQDQDSQELADQLVKNNFRATKLATTGGFLRAGNTTFLCGVNDDRVDEILSVINQTCGNREQLVSPITPMGGSADSYIPYPVEVEVGGATVFVMPVDAFHQFLEHHHHHH | soluble |
| MRTQFINEQTMMIYFENEISESTFKKVQQTIQYIKSKNLSEITNMIPSYRAILIYFDNSGINGTELLENLELDENSNSRKQSHFKQRIIHIPVLYGGDFGPDLSEVANVNKLSQEEVIQIHTQQPYLIYMLGFMPGFPYLGGLDAKLHTPRRSEPRIKINAGSVGIANNQTGLYPMDSPGGWQIIGRTPIKVFDLNRTPMTLYEAGDYIQFYSINYQEFEKISNDINKGKFDIDKWVTYQDEYLEHHHHHH | not soluble |
| GPGSMPLMSADGSGELPPVMLHRYPVTLGLPTADPYALAIECMLRIVGAHYKKRDGGLPVTLEVPVDGRNKPAMKRHEGLTSCLQLIESATHQDAEVITSALEPEALCVRLTAEVVLIPAFVYITHSDAGILRNAIQKAVEPKVASMWQRFRGSYSRHVVQQTSFCRSYKNMGEAIENVERCLRAIEAICSINTAGNGMFILGTERPCSADALIYAAASSFFHADFASRQASGDIIAMQQRLREGCPTLLTYVERLRGLYFEDYSAFYHLRAPTCGMEGEATQKAAEETFVRGRWKVLAFTGVFSITYFLVANIDVFSAVLLHYLEDDGEEEFLEDEE | not soluble |
| MGSDKIHHHHHHMRLRHIEIFHAIYTTGSITNAAKILHVSQPSVSKVLSHAEMQLGFDLFERVKGRLTPTDEAEMLFDEVDKIYQQMRSIKNTAENIKKSEYGQINIAGSPALGFDVIPSAIAKYHHKHHQVNFNVQTVHNDAVMQTLLEHKCDLAILFAPNVMPGVTSIELAQSELVIVYPKVSFPDCPKELTLNQLKEFEYIDIGDSGPLADLLWTRMMKDNISLEALIKVQTYFIAARLVAQGVGICVVDRFTAEGNLSDNTAIASFNPPLTFPVKALYLENKSLSKVSQEFLSYLTTEFSDDSK | not soluble |
| VEQELATKMLQIQSKRFYLDVKQNRRGRFIKVAEIGADGRRSQIYLALSTAAEFRDHLSSFSDYYASLGPPNTDNLPEDGKLKSEMMIKDYRRYYLDLKENARGRFLRVSQTITRGGPRSQIALPAQGMIEFRDALTDLLEEFGAN | soluble |
| ARPKGIRIGYLPQVMRLQDGHTVYEEVEQAFNDIRQIEEEIRRLSDEMAGRTDYESDDYIRLIEHYTNMSETLSLMQQGNYHAAIEQTLIGLGFGREDFHRPTADFSGGWRMRIELAKLLLQRPEVLLLDEPTNHLDIESIGWLEQFIATNAGAVILVSHDRAFIDNTTTRTIEIELGHIYDYKTNYSHYVELREERLRQQMRAYENQQKMIRDTEDFIERFRYKATKSVQVQSRIKQLEKVERVEIDERDRSAFHFRFIPAQPSGSYP | not soluble |
| MSLGAMKRLALLVPERANIASLENARQGFLAANGFLRERGCAPRFDVRLVAATPQVRLDHGRITVQADTVLEAVGEVDLCVVPPIQGDPQPALQENGALIDWLAGYYKNGGEVASLCVGAALLAAGGVLDGQRAVVHWAAQSDFGRLFPAVRWVSDRVVLEANGIYTSGGAFSAAHLVLHLVDKYTDRETAIWCAKLFQLDWSREGHHHHHH | soluble |
| MGSDKIHHHHHHMGERTEDYRYVKTQHKIYTALIALLKKRAFDDITVRDLCQAAQVSRSGFYLHFVDKYDLVDSYGRDLVKMGMRLFYANRGNGLETLYTELLTLINEQGDLITLLLSRKGSVEIQNQIKNQLRQNAADNILPYYGIKNQSPVAQRYLIAMTTGAVLSILQEWLDSGKQESPAELVAVMQEQVMPTLQRSQFRL | not soluble |
| MAHHHHHHMSVEEVQNAAAMADEEIPTLEAAEVPQNAKQSKRYAKAMAKMGLKPEPNITKVTIRKVGSLSFAMVQPEVYRFPGTNTFVIFGEAQLEDTSALAQEAAARAAVSGAASASSDAAASVPAAEEDDDEEVDAGDLDEKEINVVMSQANVSRSKAIKALKNNNGDIVNTIMELTM | soluble |
| GRRDNLIVGLDIGTTKICAIVGNVTEDGIDIVGIGTSPSRGMRKGVVINIESTVESIKKAVSEAELMAGCDIRSVYAGIAGGHIKGINSQGVIAIKNREVSSEDVKRVIDAAKAIAIPMDR | not soluble |
| MGSDKIHHHHHHMNYSHFVGLDVGKKTFDASLMSADEKELSHKSFDNTPTGIQSLLDWIAGYHLSLSKLLFCAENMGSYVTELSVSSVSMGFSLALVCPLTIKKSIGLQRGKNDRIDAKRIANYAVLHYRKLELYKLPDKDLVRLRGWIIIRDNLVKQKVSSIKLLETFSWMAKLADVTESISFLEEQLKSIKERILEVEEDMEQLIAASTSLYTNYLLLRSIKGIGIINAIVLLCVTDNFQRFDNPRKFACYCGVAPFEHTSGISIRGKTQTSSLANKEVKVYLTRAAITAISWDPQMKAYYKRKIAEGKHKASVINAVRAKIIARSFAVIRRQTPFVTLAV | not soluble |
| MSLKQYKAYLIDLDGTMYMGTDEIDGAKQFIDYLNVKGIPHLYVTNNSTKTPEQVTEKLREMHIDAKPEEVVTSALATADYISEQSPGASVYMLGGSGLNTALTEAGLVIKNDEHVDYVVIGLDEQVTYEKLAIATLGVRNGATFISTNPDVSIPKERGLLPGNGAITSVVSVSTGVSPQFIGKPEPIIMVKALEILGLDKSEVAMVGDLYDTDIMSGINVGMDTIHVQTGVSTLEDVQNKNVPPTYSFKDLNEAIAELEKEGHHHHHH | soluble |
| MSTPYVSVIGKITGIHKKEYESDGTTKSVYQGYIEDDTARIRISSFGKQLQDSDVVRIDNARVAQFNGYLSLSVGDSSRIESVNVNIPLEHHHHHH | not soluble |
| MGSSHHHHHHSSGLVPRGSHMTPKDDEFYQQWQLKYPKLILREASSVSEELHKEVQEAFLTLHKHGCLFRDLVRIQGKDLLTPVSRILIGNPGCTYKYLNTRLFTVPWPVKGSNIKHTEAEIAAACETFLKLNDYLQIETIQALEELAAKEKANEDAVPLCMSADFPRVGMGSSYNGQDEVDIKSRAAYNVTLLNFMDPQKMPYLKEEPYFGMGKMAVSWHHDENLVDRSAVAVYSYSCEGPEEESEDDSHLEGRDPDIWHVGFKISWDIETPGLAIPLHQGDCYFMLDDLNATHQHCVLAGSQPRFSSTHRVAECSTGTLDYILQRCQLALQNVCDDVDNDDVSLKSFEPAVLKQGEEIHNEVEFEWLRQFWFQGNRYRKCTDWWCQPMAQLEALWKKMEGVTNAVLHEVKREGLPVEQRNEILTAILASLTARQNLRREWHARCQSRIARTLPADQKPECRPYWEKDDASMPLPFDLTDIVSELRGQLLEAKP | soluble |
| MIFKVGDTVVYPHHGAALIEAIETRTIKGEQKEYLVLKVAQGDLTVRVPADNAEYVGVRDVVGQEGLDKVFQVLRAPHTEEPTNWSRRYKANLEKLASGDVNKVAEVVRDLWRREQDRGLSAGEKRMLAKARQILVGELALAEGTDSDKAETILDEVLAAAS | not soluble |
| EKDSQSPKIRQKYLRQYPELNSLIPAVVTEVREKEATAALQNGQIIIIPWEGMSWARPALKRGGWVGKSPTKAQQVVAAGDIIYVHPTEKSWQLAQIP | not soluble |
